Experiment [1] has as its target MERS-CoV spike (S) protein (MERS-CoV) (UniProt K9N5Q8). Kind of experiment: cell-based or functional assay.
Experiment [2] addresses SARS-CoV-2 spike (S) glycoprotein (SARS-CoV-2) (UniProt P0DTC2). Kind of experiment: cell-based or functional assay.

In experiment [1], “EK1 lipopeptide (EK1C4), cholesterol-conjugated” showed an IC50, plaque-neutralization test, MERS-CoV infection of Vero E6 cells of 8 nM. This substance displayed an IC50, plaque-neutralization test, SARS-CoV-2 infection of Vero E6 cells in experiment [2] of 80 nM.

The values are drawn from patent publication US20250257099A1 (priority 2022, published 2025).
